Key:
[1] = target: human KIT (wild-type KIT) (human, UniProt P10721 26-976); experiment: cell-based or functional assay
[2] = target: T1, recombinant human FcγRIIb (human, UniProt P31994 46-217, limits assumed); experiment: Bio-layer interferometry (Octet QKe); His-tagged FcγRIIb on anti-Penta-His biosensors, serial dilutions of antibody
T1 construct: Histidine-tagged recombinant receptor captured on anti-Penta-His biosensors; not shown: histidine tag
T1 sequence (looked up): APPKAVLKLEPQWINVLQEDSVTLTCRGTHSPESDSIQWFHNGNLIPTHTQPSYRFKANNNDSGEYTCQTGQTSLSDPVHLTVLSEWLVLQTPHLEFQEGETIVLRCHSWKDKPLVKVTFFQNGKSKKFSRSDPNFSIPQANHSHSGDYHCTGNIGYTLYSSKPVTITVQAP

Chain of human KIT (wild-type KIT) (P10721 other isoform, or with tags, fused parts or gaps limits assumed): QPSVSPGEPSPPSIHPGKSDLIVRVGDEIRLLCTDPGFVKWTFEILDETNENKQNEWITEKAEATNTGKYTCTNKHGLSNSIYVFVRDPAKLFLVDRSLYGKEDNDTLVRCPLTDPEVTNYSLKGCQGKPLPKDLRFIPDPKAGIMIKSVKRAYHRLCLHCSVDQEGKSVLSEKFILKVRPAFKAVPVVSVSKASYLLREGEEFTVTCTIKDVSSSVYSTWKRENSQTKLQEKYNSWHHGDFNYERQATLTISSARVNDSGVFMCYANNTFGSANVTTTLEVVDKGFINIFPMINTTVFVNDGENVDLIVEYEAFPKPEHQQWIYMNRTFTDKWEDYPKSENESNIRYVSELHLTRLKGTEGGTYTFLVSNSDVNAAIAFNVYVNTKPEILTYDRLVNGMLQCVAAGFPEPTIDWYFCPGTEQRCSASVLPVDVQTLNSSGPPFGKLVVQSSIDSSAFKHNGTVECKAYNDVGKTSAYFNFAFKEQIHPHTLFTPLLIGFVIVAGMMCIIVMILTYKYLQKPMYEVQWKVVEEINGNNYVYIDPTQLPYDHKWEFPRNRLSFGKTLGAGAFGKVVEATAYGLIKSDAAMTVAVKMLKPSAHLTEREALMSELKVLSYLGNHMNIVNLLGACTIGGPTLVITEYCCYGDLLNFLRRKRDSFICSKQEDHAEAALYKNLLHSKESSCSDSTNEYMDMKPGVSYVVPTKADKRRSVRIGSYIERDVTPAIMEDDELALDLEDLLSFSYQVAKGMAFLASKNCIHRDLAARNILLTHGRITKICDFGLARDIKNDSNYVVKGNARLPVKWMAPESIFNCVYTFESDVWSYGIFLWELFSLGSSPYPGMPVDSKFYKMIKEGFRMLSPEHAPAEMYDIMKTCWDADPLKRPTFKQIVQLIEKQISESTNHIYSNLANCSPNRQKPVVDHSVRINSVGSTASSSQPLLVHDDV

B1: mAb1 (antibody, human IgG1, kappa)
heavy: QVQLVQSGAEVKKPGASVKLSCKASGYTFTDYYINWVRQAPGKGLEWIARIYPGSGNTYYNEKFKGRATLTADKSTSTAYMQLSSLRSEDTAVYFCARGVYYFDYWGQGTTVTVSSASTKGPSVFPLAPSSKSTSGGTAALGCLVKDYFPEPVTVSWNSGALTSGVHTFPAVLQSSGLYSLSSVVTVPSSSLGTQTYICNVNHKPSNTKVDKKVEPKSCDKTHTCPPCPAPEAQGGPSVFLFPPKPKDTLYITREPEVTCVVVDVSHEDPEVKFNWYVDGVEVHNAKTKPREEQYNSTYRVVSVLTVLHQDWLNGKEYKCQVSNKALPAPIEKTISKAKGQPREPQVYTLPPSRDELTKNQVSLTCLVKGFYPSDIAVEWESNGQPENNYKTTPPVLDSDGSFFLYSKLTVDKSRWQQGNVFSCSVMHEALHNHYTQKSLSLSPG
light: DIVMTQSPSSLSASVGDRVTITCKASQNVRTNVAWYQQKPGKAPKALIYSASYRYSGVPDRFTGSGSGTDFTLTISSLQPEDFADYFCQQYNSYPRTFGGGTKVEIKRTVAAPSVFIFPPSDEQLKSGTASVVCLLNNFYPREAKVQWKVDNALQSGNSQESVTEQDSKDSTYSLSSTLTLSKADYEKHKVYACEVTHQGLSSPVTKSFNRGEC
IC50 of inhibition of SCF-dependent M-07e cell proliferation [1]: 1.11 nM

B2: mAbc (antibody)
heavy: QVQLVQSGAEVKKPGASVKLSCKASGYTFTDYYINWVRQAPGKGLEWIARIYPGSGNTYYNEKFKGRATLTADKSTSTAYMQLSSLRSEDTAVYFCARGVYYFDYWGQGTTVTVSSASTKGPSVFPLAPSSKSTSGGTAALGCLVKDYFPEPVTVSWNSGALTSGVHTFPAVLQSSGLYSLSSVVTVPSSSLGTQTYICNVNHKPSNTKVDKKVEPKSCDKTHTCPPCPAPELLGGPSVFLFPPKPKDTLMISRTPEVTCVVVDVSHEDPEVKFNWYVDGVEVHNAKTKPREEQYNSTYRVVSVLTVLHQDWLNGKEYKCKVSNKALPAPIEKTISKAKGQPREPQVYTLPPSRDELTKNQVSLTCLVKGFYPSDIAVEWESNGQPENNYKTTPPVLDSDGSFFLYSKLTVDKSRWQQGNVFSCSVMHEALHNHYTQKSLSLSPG
light: DIVMTQSPSSLSASVGDRVTITCKASQNVRTNVAWYQQKPGKAPKALIYSASYRYSGVPDRFTGSGSGTDFTLTISSLQPEDFADYFCQQYNSYPRTFGGGTKVEIKRTVAAPSVFIFPPSDEQLKSGTASVVCLLNNFYPREAKVQWKVDNALQSGNSQESVTEQDSKDSTYSLSSTLTLSKADYEKHKVYACEVTHQGLSSPVTKSFNRGEC
notes: It only says that mAbc has the variable regions of mAb1 and a wild-type (unmutated) human IgG1 Fc; also called corresponding antibody with a wild-type (unmutated) IgG1 Fc domain; copies: 2 + 2
IC50 of inhibition of SCF-dependent M-07e cell proliferation [1]: 1.12 nM | binding result [2]: no binding (tested: 500 nM)

— patent US20260055193A1 (CELLDEX THERAPEUTICS, published 2026)
